Measured values reported in doi:10.1101/2020.03.13.990150.

Target: Saccharomyces cerevisiae (Sc) Tim9 (Saccharomyces cerevisiae)
Test: SEC

“Saccharomyces cerevisiae (Sc) Tim9 (natural protein)” gave a stoichiometry N of 2.
